Data on one molecule can be found in publication PMC6946805.

This experiment deals with Plasmodium yoelii erythrocyte-binding-like protein (PyEBL), C741 allele of P. yoelii nigeriensis strain N67C, HA::Flag-tagged (Plasmodium yoelii nigeriensis strain N67C). The experiment in a line: co-IP; anti-HA antibody immunoprecipitation of HA-tagged PyEBL from supernatants and solubilized pellets of iRBCs of all parasite stages lysed with saponin (0.1%) and centrifuged (1,455 x g, 4°C, 10 min); Western blot of the precipitates with anti-band 3 or anti-TER119 antibody. On the technique in general: In western blotting, separated proteins are transferred to a membrane and probed.

B1: band 3 (natural protein)
chain: MGDMRDHEEVLEIPDRDSEEELENIIGQIAYRDLTIPVTEMQDPEALPTEQTATDYVPSSTSTPHPSSGQVYVELQELMMDQRNQELQWVEAAHWIGLEENLREDGVWGRPHLSYLTFWSLLELQKVFSKGTFLLGLAETSLAGVANHLLDCFIYEDQIRPQDREELLRALLLKRSHAEDLGNLEGVKPAVLTRSGGASEPLLPHQPSLETQLYCGQAEGGSEGPSTSGTLKIPPDSETTLVLVGRANFLEKPVLGFVRLKEAVPLEDLVLPEPVGFLLVLLGPEAPHVDYTQLGRAAATLMTERVFRITASMAHNREELLRSLESFLDCSLVLPPTDAPSEKALLNLVPVQKELLRRRYLPSPAKPDPNLYNTLDLNGGKGGPGDEDDPLRRTGRIFGGLIRDIRRRYPYYLSDITDALSPQVLAAVIFIYFAALSPAVTFGGLLGEKTRNLMGVSELLISTAVQGILFALLGAQPLLVLGFSGPLLVFEEAFFSFCESNNLEYIVGRAWIGFWLILLVMLVVAFEGSFLVQYISRYTQEIFSFLISLIFIYETFSKLIKIFQDYPLQQTYAPVVMKPKPQGPVPNTALFSLVLMAGTFLLAMTLRKFKNSTYFPGKLRRVIGDFGVPISILIMVLVDSFIKGTYTQKLSVPDGLKVSNSSARGWVIHPLGLYRLFPTWMMFASVLPALLVFILIFLESQITTLIVSKPERKMIKGSGFHLDLLLVVGMGGVAALFGMPWLSATTVRSVTHANALTVMGKASGPGAAAQIQEVKEQRISGLLVSVLVGLSILMEPILSRIPLAVLFGIFLYMGVTSLSGIQLFDRILLLFKPPKYHPDVPFVKRVKTWRMHLFTGIQIICLAVLWVVKSTPASLALPFVLILTVPLRRLILPLIFRELELQCLDGDDAKVTFDEENGLDEYDEVPMPV
As to B1, the band 3 signal divided by anti-HA signal, ratio N67C/N67, pellet fraction (fold (N67C over N67)) worked out at 3.3 and the band 3 signal divided by anti-HA signal, ratio N67C/N67, supernatant fraction (fold (N67C over N67)) came out at 3.1.
